Results published in patent US20230355533A1, “BIODEGRADABLE POLYCAPROLACTONE CAPSULE FOR ANTIBODY RELEASE AND DEGRADATION” (University Of Cincinnati, priority 2022, published 2023).

Experiments:
[1] = Bev permeability across PCL membrane, vertical permeability column; assay type: physicochemical; settings: 0.05 PEG PCL membrane, donor 50 mg/mL, area 0.78 cm^2
Experimental: The permeability experiments were conducted using a vertical permeability column. The donor side was filled with 200 μL of 50 mg/mL Bev solution and the receiver side was filled with 5 mL of PBS. […] The membranes were soaked in DI water for 24 h to remove the PEG and then placed in the column without drying. Once the membrane was securely placed between the donor and receiver sections, 200 μL of the donor solution was loaded and then the opening was sealed off to reduce evaporation altering the concentration of the donor and receiver solutions. 500 μL of the receiver and 10 μL of the donor solution were removed every 72 h to check the concentration using UV-Vis. The removed solutions were replaced by fresh PBS for the receiver solution and the donor was replaced by fresh donor solution or completely replaced depending on the remaining concentration.
After 12 days, the mass of Bev that permeated the membrane was plotted against time to get dQ/dt in the equation: […]
where Ci is the initial concentration (donor solution concentration), P is the permeability coefficient, and A is the area of the exposed membrane.

[2] = Bev partition coefficient in PCL membrane; assay type: physicochemical; settings: equilibrium solution of 20 mg/mL
Experimental: The partition coefficient K is required for the release kinetics model equation. […] The membranes were soaked in 200 μL of PBS for 48 h. After 48 h the membranes were blotted with a Kimwipe to remove surface liquid and then weighed to determine the wet mass of the membrane. The membranes were then dried overnight in a chemical hood. The dry membranes were then placed in 200 μL of an equilibrium Bev solution for 72 h to allow the membranes to absorb the Bev from the solution. After 72 h the membranes were removed from the equilibrium, blotted, and placed in 200 μL of fresh PBS to extract Bev for 48 h. This extraction process was repeated until the amount extracted was 10% of the first extraction. The remaining equilibrium solution and all extraction solutions were analyzed using UV-Vis to determine the Bev concentration. The partition coefficient was then determined using the equation below.
where Me is the total mass extracted, W is the wet mass of the membrane, Meq is the amount of Bev left in the equilibrium solution, V is the volume of water left in the equilibrium solution, and ρ is the density of the solution.

[3] = Bev drug release kinetics model (cylindrical reservoir); settings: calculated from Stokes-Einstein diffusion coefficient and hindrance factor
Description: The equation used to model the release profile is
where Mt is the mass released at time t, M∞, is the mass loaded in the implant, Ri is the inner radius of the implant, Ro is outer radius of the implant, De is the effective diffusivity, K is the partition coefficient, and L is the length of the implant. This equation models Fick's law of diffusion of molecules from the lumen of a cylindrical implant through a membrane wall. Ro, Ri, and L can all be measured from the implants, but De and K must be determined experimentally or calculated from other parameters that can be determined experimentally to create this model. K may be determined experimentally, as described herein. To find De, permeability, Stokes-Einstein diffusion, hindrance factor for diffusion, hindrance factor, and the restrictive factor all were determined experimentally or calculated.
The permeability of Bev across the PCL membrane can be described by […]
where kB is the Boltzmann constant, T is the temperature in Kelvin, η is the viscosity of water at 25° C., and r is the hydrodynamic radius of Bev. The overall hindrance factor for diffusion, H, is expressed as: […]
where λ is the ratio of permeant radius to pore radius and Kt, the hinderance factor, is calculated by: […]
The last value that needs to be determined for Equation 3 is effective diffusivity (De). De can be determined from the equation: […]

[4] = system: TNF-α stimulated HUVECs; experiment: IL-6 ELISA assay; assay type: cell-based, Human; settings: Dex 33 μM, 24 h pretreatment, then 20 ng/mL TNF-α 24 h
Experimental: Human primary umbilical vein endothelial cells (HUVECs) were maintained in EBMTM-2 Basal Medium and EGMTM-2 SingleQuots™ Supplements (Lonza, Switzerland). HUVECs were grown in the cell incubator containing 5% CO2 at 37° C. When the cells were grown to 90% confluence, they were inoculated in 24-well plates. Briefly, 0.4 mL of HUVECs suspensions (8×104 HUVECs per well) were seeded in 24-well plates and incubated at 37° C, 5% CO2 for 24 h. […] After 24 h, all the conditions except the medium only were incubated with 20 ng/mL TNF-α for 24 h. […] At the end of experiments, the cell medium was collected and centrifuged at 2,000×g for 10 min to remove the particulate/debris materials. Then, supernatant was collected and stored at −20° C. until used. Each sample was pre-diluted using a standard dilution buffer to keep the sample concentrations within the range of standard curve. The concentration of pro-inflammatory cytokine (IL-6) in the cell culture supernatant was analyzed by the ELISA assay according to the manufacturer's recommendation (Invitrogen® human IL-6 ELISA kit). All tests were done in triplicate.

Row | Substance | Bev permeated across the membrane [1] [µg/day] | partition coefficient K [2] | effective diffusion coefficient De [3] | IL-6 level in cell culture medium compared to TNF-α stimulated HUVECs (condition 2) [4]
1 | Bevacizumab | 42.5 | 0.515 | 5.59 × 10^−6 cm^2/day | 
2 | Dexamethasone sodium phosphate [free Dex] |  |  |  | not significantly decreased
